Experimental findings from the supplement of paper PMC9170038 are described below.

The data set deals with MS2 coat protein. The experiment in a line: apparent KD of MS2 coat protein; designed switch direction (-1 OFF switch, 1 ON switch): -1; higher = weaker reporter binding. The gist of the method: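 Three titration conditions were used: no input, 200 uM small-molecule ligand, and an oligonucleotide input. In each, SNAP-549-labelled MS2 coat protein was raised from 0.7 or 1.5 nM, doubling, to 3 µM over designed RNA switches transcribed on Illumina chips by stalled E. coli RNA polymerase. Curve fits of normalised cluster fluorescence gave values whose per-design median over clusters is the apparent KD.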

[1] abbreviates: input ligand: microRNA oligo, concentration not stated.
The mark [2] stands for this setting: Eterna round: R95, input ligand: FMN 200 uM.
The mark [3] stands for this setting: Eterna round: R95, input ligand: microRNA oligo, concentration not stated.
Setting [4] is: Eterna round: R95, input ligand: none.

In the case of “CUCCGGCGUGUAGGAUAUGGUUCCGUUUAGGAUCCAGAAGGACAUGAGGAUCACCCAUGUACAUGUCGUCGGUCGUCACCGGGC [salish99_ExNG1_r04_212] (Eterna round: R96, puzzle: Exclusion NG 1)”, the “apparent KD of MS2 coat protein” value reads like this: (input ligand: FMN 200 uM) 110 nM; under setting [1], 24.5 nM; (input ligand: none) 28.5 nM.
Taken in the same sequence, the figures for “CUCCGGCGUGUAGGAUAUGGUUCCGUUUCGGUUCCAGAAGGACAUGAGGAUCACCCAUGUACAUGUCGUCGGUCGUCACCGGGC [salish99_ExNG1_r04_215] (Eterna round: R96, puzzle: Exclusion NG 1)” were 120 nM, 21.7 nM and 35.4 nM.
With “CUCCUCAUGGCGCCUAAACACAUGAGGAUCACCCAUGUACAGGCUCUUUGCCGUCUUAUAAUAAAACCGAGGAUGCG [Ageusan] (puzzle: Sensor v3, turn-off variant 1)”, the “apparent KD of MS2 coat protein” value runs as follows: under setting [2], 40.2 nM; under setting [3], 219 nM; under setting [4], 36.4 nM.
In the case of “CUCGUGCAGCAAAGCUGUACGAGUACAUGAGGAUCACCCAUGUAGGAUAUGGUACGCAAAGCGUGCUAGAAGGAUAUGUGAAGG [Mat - Exclusion NG 3 - Mod of JL - D88] (Eterna round: R96, puzzle: Exclusion NG 3)”, the “apparent KD of MS2 coat protein” value came to 49.4 nM (input ligand: FMN 200 uM), 36.2 nM under setting [1] and 51.5 nM (input ligand: none).
“CUCUACGGAGGAUAUACAACCGGUUAUCCCUGUGGAACGCCACAUGAGGAUCACCCAUGUAGAAGGCCGAGAAA [Ceones] (puzzle: Exclusion 2)”: the “apparent KD of MS2 coat protein” value by setting is: under setting [2], 15.2 nM; under setting [3], 211 nM; under setting [4], 218 nM.
Take “CUCUUGUAAGGAUAUCUGACAAGUGACGAAAGUCACAGUUCAGAGAAGGUACAUGAGGAUCACCCAUGUAGAAC [Exclusion 4 - Mod Brourd Ex 4-3: 41] (puzzle: Exclusion 4)”: the “apparent KD of MS2 coat protein” value under setting [3] amounted to 60.6 nM.
For the sequence “CUGAACCCGGUAGGAUAUAUUGUGGGCAGGCGUGGAACGACAUGAGGAUCACCCAUGUAAUUGAGGUAGAAGGGCCGAGAGAUU [Excl-NG2-LRO14] (Eterna round: R96, puzzle: Exclusion NG 2)”, the “apparent KD of MS2 coat protein” value was found to be 32.8 nM (input ligand: FMN 200 uM), 25.9 nM under setting [1] and 37.1 nM (input ligand: none).
Take “CUGAAUCGAGGAUAUUGUACUGCUGACAUGAGGAUCACCCAUGUAUGUUAACUCAGCCGUCGAGAAGGCGAACAUA [BotMod 33 - Jieux - Exclusion 5] (Eterna round: R97, puzzle: Exclusion 5)”: the “apparent KD of MS2 coat protein” value is, setting by setting: (input ligand: FMN 200 uM) 12.8 nM; (input ligand: none) 19 nM.
For “CUGAGCAGACGGAGAUCCAACAUGAGGAUCACCCAUGUCUCAAAAGCUUUUUGCUCGUCUUAUCCUCCUCUGCUCUC [Orgeain] (puzzle: Sensor v3, turn-off variant 1)”, the “apparent KD of MS2 coat protein” value by setting is: under setting [2], 14.8 nM; under setting [3], 31.6 nM; under setting [4], 14.1 nM.
Taken in the same sequence, the figures for “CUGAGGUAGCGGUCCUAUGACAUGAGGAUCACCCAUGUACCUUGCUACGAGCUUUUUGCUCGUCUUAUAAUUCUCAG [Mat - Sensor v3 - turn-off var 1 - JL Mod - D31] (puzzle: Sensor v3, turn-off variant 1)” were 151 nM, 96.5 nM and 247 nM.
As to “CUGAGUUUAGGAUAUACAUGAGGAUCACCCAUGUAAAGUAGCUUGCGUACAGGCAGAUGUAGAAGGAAAUUCGG [Mod of JL 7 - Jieux - Exclusion 3] (Eterna round: R97, puzzle: Exclusion 3)”, the “apparent KD of MS2 coat protein” value runs as follows: (input ligand: FMN 200 uM) 31.5 nM; (input ligand: none) 41.8 nM.
“CUGAUGUGAGGAUAUCUAAAAGAAACUGGGCAAAUACCCAGAGAGAAGGCACAUGAGGAUCACCCAUGUAACGA [Anedin] (puzzle: Exclusion 4)”: the “apparent KD of MS2 coat protein” value under setting [3] is 20.9 nM.
Take “CUGCUGGAGCGGCGCUUUGGUCGUACAUGAGGAUCACCCAUGUAGGAUAUGGUAAAAUUUGCCUGCUAGAAGGAUAGAGUGGUC [salish99_ExNG3_r04_616] (Eterna round: R96, puzzle: Exclusion NG 3)”: the “apparent KD of MS2 coat protein” value by setting is: (input ligand: FMN 200 uM) 124 nM; under setting [1], 70 nM; (input ligand: none) 91.6 nM.
Take “CUGCUGGAGCGGCGCUUUGGUCGUACAUGAGGAUCACCCAUGUAGGAUAUGGUAAAAUUUGCUUGCUAGAAGGAUAGAGUGGUC [salish99_ExNG3_r04_615] (Eterna round: R96, puzzle: Exclusion NG 3)”: the “apparent KD of MS2 coat protein” value is, setting by setting: (input ligand: FMN 200 uM) 140 nM; under setting [1], 64.5 nM; (input ligand: none) 80.3 nM.
For the sequence “CUGGUCCGAGGAUAUAUUAAGUGAAACAUGAGGAUCACCCAUGUUAUUUGAUGGAUGUAAAUAGAAGGCGGACUAG [JL-ex5-3.13] (puzzle: Exclusion 5)”, the “apparent KD of MS2 coat protein” value was 23.8 nM under setting [2], 33.1 nM under setting [3] and 49.1 nM under setting [4].
Consider “CUGGUCCGAGGAUAUAUUAAGUGAUACAUGAGGAUCACCCAUGUUAUUUAAUGGAUAUUAAUAGAAGGCGGACUAG [Mat - Exclusion 5 - JL mod - D77] (puzzle: Exclusion 5)”, for which the “apparent KD of MS2 coat protein” value reads like this: under setting [2], 34.1 nM; under setting [3], 28.4 nM; under setting [4], 25.5 nM.
Taken in the same sequence, the figures for “CUGGUCCGAGGAUAUAUUAUGUGAAACAUGAGGAUCACCCAUGUAAUAUGAUGGAAAUAAAUAGAAGGCGGACUAG [Mat - Exclusion 5 - JL mod - D32] (puzzle: Exclusion 5)” were 26 nM, 34.5 nM and 43.5 nM.
With “CUGUAAAGGAAGGAUAUGCUAGACGAAAGUCUAGCAGAAGGUCCUACAUGAGGAUCACCCAUGUGGCCUCACAG [Mat - Exclusion 6 - Eli Mod - D50] (Eterna round: R97, puzzle: Exclusion 6)”, the “apparent KD of MS2 coat protein” value runs as follows: (input ligand: FMN 200 uM) 1500 nM; (input ligand: none) 274 nM.
As to “CUGUACUGAGGAUAUACAUGAGGAUCACCCAUGUGUCCCAGCUAGGAAACUAGCAAAGGUAGAAGGCAGUACAG [Mat - Exclusion 3 - Eli Mod - D57] (Eterna round: R97, puzzle: Exclusion 3)”, the “apparent KD of MS2 coat protein” value worked out at 302 nM (input ligand: FMN 200 uM) and 22.6 nM (input ligand: none).
Taken in the same sequence, the figures for “CUGUACUGAGGAUAUACAUGAGGAUCACCCAUGUGUUCCAGCUAGGAAACUAGCAAAAGUAGAAGGCAGUACAG [Mat - Exclusion 3 - Eli Mod - D65] (Eterna round: R97, puzzle: Exclusion 3)” were 332 nM and 30.5 nM.
In the case of “CUUAAAAGGAAGGAUAUGCUAGACGAAAGUCUAGCAGAAGGUCCUACAUGAGGAUCACCCAUGUGUCCUAUAAG [Mat - Exclusion 6 - Eli Mod - D13] (Eterna round: R97, puzzle: Exclusion 6)”, the “apparent KD of MS2 coat protein” value runs as follows: (input ligand: FMN 200 uM) 72.4 nM; (input ligand: none) 81.1 nM.
For “CUUAGACAUGAGGAUCACCCAUGUGAGGAUAUGAUGCGGGAGACGAAAAGUUUCAGCAUCAGAAGGCACAUAUG [mod of disincluded 3 v.3 (my top score 87 - 34% A's)] (puzzle: Exclusion 1)”, the “apparent KD of MS2 coat protein” value under setting [2] is 349 nM, the “apparent KD of MS2 coat protein” value under setting [3] was 175 nM and the “apparent KD of MS2 coat protein” value under setting [4] came to 172 nM.
For “CUUAGCCUAAAAUCACGCAAGCCUUUUGCUUGUCUUAAGACAUGAGGAUCACCCAUGUCCGGGCUGAACUUAUGGAA [Geanon] (puzzle: Sensor v3, turn-off variant 2)”, the “apparent KD of MS2 coat protein” value under setting [2] is 17.4 nM, the “apparent KD of MS2 coat protein” value under setting [3] stood at 33.3 nM and the “apparent KD of MS2 coat protein” value under setting [4] is 16.6 nM.
Take “CUUAGUUGGUAAGGAUAUCCUACAUUAUUCUGACCCGUGCAAGCUACAUGAGGAUCACCCAUGUGGGAGAAGGUGCGUUAAUGU [Design 6] (Eterna round: R96, puzzle: Exclusion NG 2)”: the “apparent KD of MS2 coat protein” value by setting is: (input ligand: FMN 200 uM) 18.4 nM; under setting [1], 12.9 nM; (input ligand: none) 20.1 nM.
Consider “CUUCACCCACCAGAGCACACCCACAUACCUGCUCAGGUGACAUGAGGAUCACCCAUGUUUUUUGCCCGUCUUAUCUU [Tilevere] (puzzle: Sensor v3, turn-off variant 2)”, for which the “apparent KD of MS2 coat protein” value by setting is: under setting [2], 31.6 nM; under setting [3], 144 nM; under setting [4], 33.9 nM.
For “CUUCACCCACCAGAGCUCACCCACAAACCUGCCCUGGUGACAUGAGGAUCACCCAUGUUUUUUGCCCGUCUUAUCUU [Diletibi] (puzzle: Sensor v3, turn-off variant 2)”, the “apparent KD of MS2 coat protein” value runs as follows: under setting [2], 42 nM; under setting [3], 241 nM; under setting [4], 46.8 nM.
Taken in the same sequence, the figures for “CUUCACCCACCUGAGCUCACCCACAUACCUGCUCAGGUGACAUGAGGAUCACCCAUGUUUUUUGCCCGUCUUAUCUU [Soteonge] (puzzle: Sensor v3, turn-off variant 2)” were 39.4 nM, 229 nM and 45.6 nM.
As for “CUUCAGUAAGGAUAUCAGCUUAGGAGGUUGGUAAUGAGAGCUGAGAAGGUACAUGAGGAUCACCCAUGUUAGUU [JL Zatite mod 8] (puzzle: Exclusion 4)”, under setting [3], the “apparent KD of MS2 coat protein” value was 17 nM.
On the same count and under the same terms, with “CUUCGGGCAGGAUAUGCUGUUUGUGACAUGAGGAUCACCCAUGUGAUGCAGUUUGGGUGUGCAGAAGGGCCUGAGU [JR_E5_Sub031] (puzzle: Exclusion 5)” the figure was 43.7 nM.
